Results: US20220289837A1 (VIB VZW, published 2022)

Assays:
[1] = target: T1, Purified human wt-CFTR (His10-SUMO*-CFTRFLAG-EGFP), PKA phosphorylated (human, UniProt P13569 1-1480, PKA phosphorylated (sites not given)); assay: ELISA, purified wt-CFTR immobilised on nickel-coated plate, nanobody titrated
T1 construct: Expressed in HEK293 cell line D165, purified on NiNTA in DMNG detergent; used for the full-length CFTR ELISA and the ATPase assays; also called FL-CFTR; full-length CFTR; not shown: N-terminal His10-SUMO* tag; FLAG tag and enhanced green fluorescent protein (EGFP)
T1 sequence (P13569 whole entry): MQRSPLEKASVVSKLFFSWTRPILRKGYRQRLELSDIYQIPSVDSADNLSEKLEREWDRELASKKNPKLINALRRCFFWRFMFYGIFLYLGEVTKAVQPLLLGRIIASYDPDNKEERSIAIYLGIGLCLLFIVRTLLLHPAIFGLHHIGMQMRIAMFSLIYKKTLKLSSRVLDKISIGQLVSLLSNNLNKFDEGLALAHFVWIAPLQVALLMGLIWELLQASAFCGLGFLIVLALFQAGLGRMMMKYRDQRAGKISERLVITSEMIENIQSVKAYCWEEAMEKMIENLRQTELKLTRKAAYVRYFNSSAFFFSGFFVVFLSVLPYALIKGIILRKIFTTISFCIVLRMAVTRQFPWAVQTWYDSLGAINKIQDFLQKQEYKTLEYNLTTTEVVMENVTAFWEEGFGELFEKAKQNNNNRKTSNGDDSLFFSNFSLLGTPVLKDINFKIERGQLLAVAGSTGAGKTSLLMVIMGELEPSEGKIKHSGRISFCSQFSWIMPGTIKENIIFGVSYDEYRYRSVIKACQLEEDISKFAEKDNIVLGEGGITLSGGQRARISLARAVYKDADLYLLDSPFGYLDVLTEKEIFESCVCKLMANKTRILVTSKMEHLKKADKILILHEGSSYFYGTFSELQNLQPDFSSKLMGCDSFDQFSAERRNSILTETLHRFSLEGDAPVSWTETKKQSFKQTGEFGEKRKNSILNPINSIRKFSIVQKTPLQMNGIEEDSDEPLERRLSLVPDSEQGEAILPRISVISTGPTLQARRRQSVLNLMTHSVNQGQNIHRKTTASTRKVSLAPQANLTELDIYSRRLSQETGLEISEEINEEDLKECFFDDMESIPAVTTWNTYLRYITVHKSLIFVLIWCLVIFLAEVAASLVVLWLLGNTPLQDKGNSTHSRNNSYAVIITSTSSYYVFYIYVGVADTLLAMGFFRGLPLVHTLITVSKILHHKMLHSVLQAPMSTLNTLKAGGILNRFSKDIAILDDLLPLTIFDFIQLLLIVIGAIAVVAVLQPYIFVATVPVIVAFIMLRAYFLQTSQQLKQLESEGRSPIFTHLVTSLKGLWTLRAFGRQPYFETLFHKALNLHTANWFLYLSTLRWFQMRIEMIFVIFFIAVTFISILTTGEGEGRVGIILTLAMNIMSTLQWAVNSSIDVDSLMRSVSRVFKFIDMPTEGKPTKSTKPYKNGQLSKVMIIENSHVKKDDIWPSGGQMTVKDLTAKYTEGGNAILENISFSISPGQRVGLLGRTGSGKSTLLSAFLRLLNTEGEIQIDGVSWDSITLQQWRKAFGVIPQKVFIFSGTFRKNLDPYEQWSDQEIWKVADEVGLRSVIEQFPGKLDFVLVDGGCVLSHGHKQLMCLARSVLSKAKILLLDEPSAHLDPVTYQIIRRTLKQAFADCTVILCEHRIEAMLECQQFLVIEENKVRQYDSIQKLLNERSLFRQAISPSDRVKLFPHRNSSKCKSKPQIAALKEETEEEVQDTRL
Excerpt: (§1) Quantification of at least 3 independent experiments (±SEM). (g) Immunoblot of CFTR from solubilized BHK-21 cells pulled-down with His-tagged nanobodies, including a non-CFTR nanobody as a control. Eluted nanobodies-CFTR complexes were separated by SDS-PAGE and presence of CFTR was detected with mAb 596 antibody after immunoblotting. Arrows indicate the mature (band C) and immature (band B) forms of CFTR. Representative of at least 3 independent experiments. (FIG. 4H) Flow cytometry analysis of nanobodies T2a, T8 and G3a on BHK-21 cells expressing 2PT-F508del showing increased labelling for T2a and G3a, but not T8. (FIG. 4I) Quantification of data illustrated in […]. Average of 3 independent experiments (±SEM).
(§2) Strep-Tactin XT coated microplate (iba Life Science) was coated overnight at 4° C. with Twin-Strep-tagged nanobodies (5 μg/ml). […] CFTR binding was detected with monoclonal antibodies L12B4, MM13, 154, 660, 570, 596 specific to CFTR obtained from the CFTR Antibody Distribution Program (http://cftrantibodies.web.unc.edu/available-antibodies)46 and then anti-mouse-HRP antibody (Millipore, catalogue number: AP308P, 0.5 μg/ml) for 1 h 30 min at 4° C. […] Nanobody binding was detected with Myc-tag specific antibody (Sigma, catalogue number: C3956, 0.5 μg/ml) and then anti-rabbit-HRP antibody (Cell Signaling, catalogue number: 7074S, 1:1000 dilution) for 1 h 30 min at 4° C. […]

[2] = target: T1, Purified human wt-CFTR …; assay: cell-based or functional assay
[3] = target: T2, 2PT-NBD1 (human CFTR nucleotide-binding domain 1, residues 387-646, with S492P, A534P, I539T) (human, UniProt P13569 388-646, biotinylated for the ELISA (sites not given)); assay: cell-based or functional assay
T2 sequence (P13569 388-646 V470M/S492P/A534P/I539T limits assumed): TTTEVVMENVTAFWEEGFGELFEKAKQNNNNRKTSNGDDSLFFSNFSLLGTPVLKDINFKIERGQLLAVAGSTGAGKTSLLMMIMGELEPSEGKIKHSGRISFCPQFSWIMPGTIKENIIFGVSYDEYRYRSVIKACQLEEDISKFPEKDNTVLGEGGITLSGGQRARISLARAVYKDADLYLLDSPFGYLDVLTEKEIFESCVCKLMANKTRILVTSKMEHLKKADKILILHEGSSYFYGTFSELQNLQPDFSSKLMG

[4] = target: T1, Purified human wt-CFTR …; assay: ELISA, Twin-Strep nanobody immobilised, concentration of purified wt-CFTR varied
Excerpt: as §1, §2

[5] = target: T2, 2PT-NBD1 (human CFTR nucleotide-binding …); assay: ELISA, biotinylated 2PT-NBD1 on avidin-coated plate, T2a titrated
Excerpt: (§3) The location of these nanobodies completely overlaps (FIG. 11a) with that of the C-terminal regulatory extension (RE) observed in previously published structures of NBD1^{[25,26].} The RE segment, comprising residues 654-673 was removed from the 2PT-NBD1 construct used for immunization and characterization. While the functional role of the RE is still unclear, it has been described to be a very mobile domain^{[27]}. […] This is consistent with RE being a dynamic region of CFTR.
(§4) For dose-response assays, Nunc MaxiSorp 96-well plates (ThermoScientific), were coated with 5 μg/ml NeutrAvidin Biotin-Binding protein (ThermoScientific) overnight at 4° C. and blocked 2 h at room temperature (RT) with 2% milk in phosphate-buffered saline (PBS). Each new reagent addition was preceded by three washes with 200 μl of NBD1 buffer (20 mM HEPES pH 7.5, 150 mM NaCl, and 10% (w/v) glycerol, 10% (w/v) ethylene glycol, 2 mM ATP, 3 mM MgCl₂). Then, biotinylated purified NBD1 proteins at 5 μg/ml were immobilized 30 min at RT followed by 1 h RT incubation with 100 μl various concentrations (0-20 μg/ml) of purified nanobodies. […] 50 μl of 1-Step UltraTMB-ELISA (ThermoScientific) was used as a substrate for the peroxidase and intensity of the reaction was proportional to absorbance measured at 450 nm with SynergyMx (BioTek) after addition of 50 μl H₂SO₄ at 1M.

[6] = target: Stabilized human CFTR (stab-CFTR: 2PT/ΔRI/R1048A_1172X) (human, UniProt P13569 1-1171, limits assumed); assay: cell-based or functional assay
Chain of Stabilized human CFTR (stab-CFTR: 2PT/ΔRI/R1048A_1172X) (P13569 other isoform, or with tags, fused parts or gaps R1048A R1048A limits assumed): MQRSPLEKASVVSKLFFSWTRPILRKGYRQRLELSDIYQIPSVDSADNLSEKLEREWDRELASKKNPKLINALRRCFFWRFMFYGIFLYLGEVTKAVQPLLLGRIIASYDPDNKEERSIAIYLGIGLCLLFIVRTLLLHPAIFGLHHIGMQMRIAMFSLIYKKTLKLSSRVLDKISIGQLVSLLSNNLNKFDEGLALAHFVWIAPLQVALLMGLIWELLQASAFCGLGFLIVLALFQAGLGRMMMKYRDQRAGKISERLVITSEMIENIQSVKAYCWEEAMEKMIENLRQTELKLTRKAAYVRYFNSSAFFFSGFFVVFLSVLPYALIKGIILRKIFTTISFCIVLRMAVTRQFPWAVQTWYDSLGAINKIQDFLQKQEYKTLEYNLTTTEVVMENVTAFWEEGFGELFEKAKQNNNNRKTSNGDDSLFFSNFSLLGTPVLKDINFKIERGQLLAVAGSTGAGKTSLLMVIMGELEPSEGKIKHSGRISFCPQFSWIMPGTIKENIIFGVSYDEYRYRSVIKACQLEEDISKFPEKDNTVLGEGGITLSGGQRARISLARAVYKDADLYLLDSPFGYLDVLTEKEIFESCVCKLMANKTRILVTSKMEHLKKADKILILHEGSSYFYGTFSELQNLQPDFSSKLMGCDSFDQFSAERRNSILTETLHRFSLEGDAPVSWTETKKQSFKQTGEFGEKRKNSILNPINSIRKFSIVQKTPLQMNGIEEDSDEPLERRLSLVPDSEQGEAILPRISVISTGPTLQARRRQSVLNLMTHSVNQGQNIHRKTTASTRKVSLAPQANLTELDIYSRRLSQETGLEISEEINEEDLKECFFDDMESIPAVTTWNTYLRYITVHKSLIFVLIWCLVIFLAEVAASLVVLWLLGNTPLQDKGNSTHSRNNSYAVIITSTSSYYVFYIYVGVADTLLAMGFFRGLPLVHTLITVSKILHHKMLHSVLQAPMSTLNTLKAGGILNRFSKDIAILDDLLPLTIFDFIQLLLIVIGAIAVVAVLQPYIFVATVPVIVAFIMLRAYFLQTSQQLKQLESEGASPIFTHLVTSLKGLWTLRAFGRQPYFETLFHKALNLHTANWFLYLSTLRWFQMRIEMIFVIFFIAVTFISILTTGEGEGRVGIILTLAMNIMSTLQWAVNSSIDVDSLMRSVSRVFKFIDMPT

[7] = target: 2PT-NBD1-RE (2PT-NBD1 with residues 387-678, containing the regulatory extension) (human, UniProt P13569 387-678, biotinylated for the ELISA (sites not given)); assay: ELISA, biotinylated 2PT-NBD1-RE on avidin-coated plate, T2a titrated
Chain of 2PT-NBD1-RE (2PT-NBD1 with residues 387-678, containing the regulatory extension) (P13569 other isoform, or with tags, fused parts or gaps limits assumed): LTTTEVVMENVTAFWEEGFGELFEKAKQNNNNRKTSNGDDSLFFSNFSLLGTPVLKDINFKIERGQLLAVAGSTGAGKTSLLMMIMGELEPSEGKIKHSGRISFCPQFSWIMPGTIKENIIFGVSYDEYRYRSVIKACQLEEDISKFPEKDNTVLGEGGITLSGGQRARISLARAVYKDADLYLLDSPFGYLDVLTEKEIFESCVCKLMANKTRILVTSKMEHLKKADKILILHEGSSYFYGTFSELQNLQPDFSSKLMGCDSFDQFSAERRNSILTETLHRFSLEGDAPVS
Excerpt: as §3, §4

Binder | EC50 (read off the curve) [1] | ATPase activity (% of PKA-phosphorylated CFTR) [2] | increase of Tm (thermal shift assay, DSF) [3] | EC50 (read off the curve) [4] | EC50 (read off the curve) [5] | Tm of stab-CFTR in complex with the nanobody (nanoDSF, first derivative of 350 nm fluorescence); 'stab-CFTR (51.4°C)', 'T2a (66.6°C)' alone [6] | EC50 (read off the curve) [7]
Nanobody T8 (VHH, not shown: small tags and cut ends, Llama nanobody; also called Nb T8; T8 Nb) VHH: QVQLQESGGGLVQPGGSLRLSCAASGSTSSINAMGWYRQAPGKQREPVAISSSGGDTRYAEPVKGRFTISRDNAQNKVYLQMNSLKPEDTAVYYCWLNWGRTSVNSWGQGTQVTVSS | ~300 nM | 60% | 9.3 °C | ~2 nM |  |  | 
Nanobody T2a (VHH, not shown: small tags and cut ends, Llama nanobody; also called Nb T2a; T2a Nb) VHH: QVQLQESGGGLVQAGGSLRLSCAASGSIFRIDAMGWYRQAPGKQRELVAHSTSGGSTDYADSVKGRFTISRDNAKNTVYLQMNSLKPEDTAVYYCNADVRTRWYASNNYWGQGTQVTVSS | ~200 nM | 50% | 11.2 °C | ~3 nM | ~7 nM | 59.7 °C | ~10 nM
